Assay results reported in patent publication US20250295803A1, “5T4 ANTIBODY-DRUG CONJUGATES AND USES THEREOF” (EXELIXIS, INC., priority 2022, published 2025).

What was measured:
[1] = molecular target: T1, cynomolgus 5T4 on cells (HEK-cyno-5T4, transfected HEK293 and CHO cells) (cynomolgus monkey, UniProt Q4R8Y9 35-420); experiment: cell binding on transfected HEK293 and CHO cells
T1 construct: also called HEK-cyno-5T4 cells
T1 sequence: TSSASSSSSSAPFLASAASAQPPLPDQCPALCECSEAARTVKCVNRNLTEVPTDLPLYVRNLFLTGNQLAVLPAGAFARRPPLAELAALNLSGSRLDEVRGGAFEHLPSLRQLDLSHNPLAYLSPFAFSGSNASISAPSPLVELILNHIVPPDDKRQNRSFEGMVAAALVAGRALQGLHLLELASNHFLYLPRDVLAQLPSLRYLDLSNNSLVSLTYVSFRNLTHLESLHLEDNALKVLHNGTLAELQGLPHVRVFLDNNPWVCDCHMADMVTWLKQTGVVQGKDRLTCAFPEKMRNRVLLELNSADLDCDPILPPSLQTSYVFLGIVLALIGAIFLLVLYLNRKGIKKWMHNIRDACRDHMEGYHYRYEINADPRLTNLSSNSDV

[2] = molecular target: T2, biotinylated cynomolgus 5T4 with His-Avi tag (produced in-house) (cynomolgus monkey, UniProt Q4R8Y9 35-355, biotin on the Avi tag); experiment: Octet, biotinylated antigen on streptavidin biosensors, antibody at 500 nM (bivalent)
T2 construct: also called cyno 5T4; Cyno 5T4 Octet (bivalent); not shown: C-terminal 6-His-Avi tag
T2 sequence: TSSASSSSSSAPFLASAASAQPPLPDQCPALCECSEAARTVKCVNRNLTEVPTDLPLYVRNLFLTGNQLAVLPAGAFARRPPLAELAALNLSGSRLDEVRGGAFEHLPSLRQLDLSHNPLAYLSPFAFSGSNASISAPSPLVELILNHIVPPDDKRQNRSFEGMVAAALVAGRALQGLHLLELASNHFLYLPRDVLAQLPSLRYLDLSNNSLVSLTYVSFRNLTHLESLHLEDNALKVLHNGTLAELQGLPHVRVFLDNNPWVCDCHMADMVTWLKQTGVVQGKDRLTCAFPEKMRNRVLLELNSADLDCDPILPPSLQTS

[3] = molecular target: T3, biotinylated mouse 5T4 with His-Avi tag (produced in-house) (mouse, UniProt Q9Z0L0 32-361, biotin on the Avi tag); experiment: as above
T3 construct: also called Mouse 5T4 Octet (bivalent); not shown: C-terminal 6-His-Avi tag
T3 sequence: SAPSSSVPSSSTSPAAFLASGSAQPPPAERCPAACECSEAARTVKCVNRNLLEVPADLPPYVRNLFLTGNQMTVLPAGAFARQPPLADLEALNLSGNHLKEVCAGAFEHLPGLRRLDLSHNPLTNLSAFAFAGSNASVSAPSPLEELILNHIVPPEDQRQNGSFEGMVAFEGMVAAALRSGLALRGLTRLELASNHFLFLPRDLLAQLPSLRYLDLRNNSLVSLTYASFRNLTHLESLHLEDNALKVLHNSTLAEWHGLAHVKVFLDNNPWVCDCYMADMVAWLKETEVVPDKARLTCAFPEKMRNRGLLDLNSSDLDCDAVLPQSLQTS

[4] = molecular target: T1, cynomolgus 5T4 on cells (HEK-cyno-5T4, …); experiment: flow cytometry on HEK-cyno-5T4 cells
[5] = molecular target: T2, biotinylated cynomolgus 5T4 with …; experiment: summary of Examples 2-5; form of the antigen not given
cyno 5T4 = molecular target: T4, cyno 5T4 (Macaca fascicularis, UniProt Q4R8Y9); experiment: Octet bivalent binding assay, cyno 5T4; set-up: species or system cynomolgus monkey; key: +: An increase in signal during the association step above the negative control was considered as binding to the antigen; details: 200 nM biotinylated antigen immobilized, antibody at 500 nM
T4 construct: made in house
T4 sequence (Q4R8Y9 35-355 limits assumed): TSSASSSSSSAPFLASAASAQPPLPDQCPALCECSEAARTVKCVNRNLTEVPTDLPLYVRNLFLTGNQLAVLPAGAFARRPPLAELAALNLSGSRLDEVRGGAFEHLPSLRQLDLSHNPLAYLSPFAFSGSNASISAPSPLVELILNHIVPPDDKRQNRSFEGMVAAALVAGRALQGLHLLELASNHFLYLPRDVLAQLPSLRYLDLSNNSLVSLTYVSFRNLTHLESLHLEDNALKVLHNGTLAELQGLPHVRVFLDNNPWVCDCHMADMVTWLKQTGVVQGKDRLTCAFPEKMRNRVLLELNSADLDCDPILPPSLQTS
Text: (§1) Bivalent binding assays were employed to provide data on whether antibodies with VH/VL obtained by the phage display in Example 1 bound immobilized 5T4 from all three clinically relevant species: human, cynomolgus monkey (cyno), and mouse. For the bivalent binding and cross-reactivity assays the 5T4 human, cyno, and mouse antigens were synthesized using sequences from the protein database and expressed as biotinylated proteins using a his-avi tag and in vivo biotinylation with co-expressed BirA enzyme.
(§2) A standard Octet-based assay was used to determine qualitatively if each antibody bound to each antigen. For these assays, 200 nM biotinylated antigens were immobilized on streptavidin biosensors in 1× kinetic buffer (ForteBio). The loaded sensors were then dipped in wells containing an antibody of interest at 500 nM and the association binding signal was monitored. An increase in signal during the association step above the negative control was considered as binding to the antigen.

mouse 5T4 = molecular target: T5, mouse 5T4 (Mus musculus, UniProt Q9Z0L0); experiment: Octet bivalent binding assay, mouse 5T4; set-up: key: +: An increase in signal during the association step above the negative control was considered as binding to the antigen; details: 200 nM biotinylated antigen immobilized, antibody at 500 nM
T5 construct: made in house
T5 sequence (Q9Z0L0 32-361 limits assumed): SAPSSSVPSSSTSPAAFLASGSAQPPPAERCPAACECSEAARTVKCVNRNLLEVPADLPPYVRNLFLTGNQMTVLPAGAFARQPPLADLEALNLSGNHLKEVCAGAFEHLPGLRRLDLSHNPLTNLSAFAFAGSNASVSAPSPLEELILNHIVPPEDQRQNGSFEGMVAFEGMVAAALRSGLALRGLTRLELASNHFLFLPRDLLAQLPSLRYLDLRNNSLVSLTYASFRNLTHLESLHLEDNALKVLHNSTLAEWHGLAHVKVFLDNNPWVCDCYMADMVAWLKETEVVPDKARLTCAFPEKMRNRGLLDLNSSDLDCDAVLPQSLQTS
Text: as §1, §2

human 5T4 = molecular target: T6, human 5T4 (Homo sapiens, UniProt Q13641); experiment: Octet bivalent binding assay, human 5T4; set-up: The extracellular domain of human 5T4 was purchased from Acro Biosystems (biotinylated human 5T4 His-AVITAG™ Acro Cat No. TPG-H83Eb) or produced; made in house; key: +: An increase in signal during the association step above the negative control was considered as binding to the antigen; details: 200 nM biotinylated antigen immobilized, antibody at 500 nM
T6 sequence (Q13641 32-355 limits assumed): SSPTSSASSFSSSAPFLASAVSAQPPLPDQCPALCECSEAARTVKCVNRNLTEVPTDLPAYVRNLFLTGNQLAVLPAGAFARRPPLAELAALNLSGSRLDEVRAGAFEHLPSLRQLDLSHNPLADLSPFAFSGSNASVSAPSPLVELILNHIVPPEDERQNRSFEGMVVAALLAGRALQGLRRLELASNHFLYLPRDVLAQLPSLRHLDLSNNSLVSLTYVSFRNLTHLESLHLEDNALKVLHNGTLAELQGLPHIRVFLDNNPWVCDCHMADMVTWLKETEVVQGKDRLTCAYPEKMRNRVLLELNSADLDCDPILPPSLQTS
Text: as §1, §2

B1: mAbA17 (antibody, V domains shown)
VH: EVQLVESGGGLVQPGGSLRLSCAASGFTFSRYWIHWVRQAPGKGLEWVAAIFPYSGSTLYADSVKGRFTISADTSKNTAYLQMNSLRAEDTAVYYCARSPSRSILPSGLDYWGQGTLVTVSS
VL: DIQMTQSPSSLSASVGDRVTITCRASQSVSSAVAWYQQKPGKAPKLLIYSASSLYSGVPSRFSGSRSGTDFTLTISSLQPEDFATYYCQQGDGSPYTFGQGTKVEIKR
notes: also called Antibody mAbA17
[1]
  binding result: binds
[2]
  binding result: binds
[3]
  binding result: binds

B2: mAbA4 (antibody, V domains shown)
VH: EVQLVESGGGLVQPGGSLRLSCAASGFTFSRYYIHWVRQAPGKGLEWVAFISPGGSYTYYADSVKGRFTISADTSKNTAYLQMNSLRAEDTAVYYCAREYYSMGVLDYWGQGTLVTVSS
VL: DIQMTQSPSSLSASVGDRVTITCRASQSVSSAVAWYQQKPGKAPKLLIYSASSLYSGVPSRFSGSRSGTDFTLTISSLQPEDFATYYCQQAYESPYTFGQGTKVEIKR
notes: also called Antibody mAbA4
[4]
  binding result: binds
[5]
  binding result: binds

B3: mAbA15 (antibody, V domains shown)
VH: EVQLVESGGGLVQPGGSLRLSCAASGFTFSSYYIHWVRQAPGKGLEWVAYITSTGSYTEYADSVKGRFTISADTSKNTAYLQMNSLRAEDTAVYYCARYDRSTRYSGLDYWGQGTLVTVSS
VL: DIQMTQSPSSLSASVGDRVTITCRASQSVSSAVAWYQQKPGKAPKLLIYSASSLYSGVPSRFSGSRSGTDFTLTISSLQPEDFATYYCQQAYATPVTFGQGTKVEIKR
notes: also called Antibody mAbA15
[4]
  binding result: binds
[2]
  binding result: binds
[3]
  binding result: binds

B4: mAbA15: 5T4 antibody comprising VH of SEQ ID NO:44 and VL of SEQ ID NO:45 (antibody, V domains shown)
VH: EVQLVESGGGLVQPGGSLRLSCAASGFTFSSYYIHWVRQAPGKGLEWVAYITSTGSYTEYADSVKGRFTISADTSKNTAYLQMNSLRAEDTAVYYCARYDRSTRYSGLDYWGQGTLVTVSS
VL: DIQMTQSPSSLSASVGDRVTITCRASQSVSSAVAWYQQKPGKAPKLLIYSASSLYSGVPSRFSGSRSGTDFTLTISSLQPEDFATYYCQQAYATPVTFGQGTKVEIK
modifications: Antibody mAbA15 VH Sequence; Antibody mAbA15 VL Sequence
Cyno 5T4
  Cyno 5T4 Octet (bivalent): +
Mouse 5T4
  Mouse 5T4 Octet (bivalent): +
Human 5T4
  Human 5T4 Octet (bivalent): +

B5: mAbA17: 5T4 antibody comprising VH of SEQ ID NO:62 and VL of SEQ ID NO:63 (antibody, V domains shown)
VH: EVQLVESGGGLVQPGGSLRLSCAASGFTFSRYWIHWVRQAPGKGLEWVAAIFPYSGSTLYADSVKGRFTISADTSKNTAYLQMNSLRAEDTAVYYCARSPSRSILPSGLDYWGQGTLVTVSS
VL: DIQMTQSPSSLSASVGDRVTITCRASQSVSSAVAWYQQKPGKAPKLLIYSASSLYSGVPSRFSGSRSGTDFTLTISSLQPEDFATYYCQQGDGSPYTFGQGTKVEIK
modifications: Antibody mAbA17 VH Sequence; Antibody mAbA17 VL Sequence
Cyno 5T4
  Cyno 5T4 Octet (bivalent): +
Mouse 5T4
  Mouse 5T4 Octet (bivalent): +
Human 5T4
  Human 5T4 Octet (bivalent): +
